One block for each molecule: values may come before it.
Tests used:
SRSF1ΔIDR2 = test: right-angle light scattering
[1] = molecular target: the molecule itself
[2] = molecular target: the molecule itself; test: right-angle light scattering

threshold concentration for microphase separation (cμ) (SRSF1ΔIDR2): 0.44 µM
Molecule: SRSF1ΔIDR2 (domain or fragment)

B1: SRSF5 (natural protein, human, UniProt Q13243 1-272, looked up)
chain: MSGCRVFIGRLNPAAREKDVERFFKGYGRIRDIDLKRGFGFVEFEDPRDADDAVYELDGKELCSERVTIEHARARSRGGRGRGRYSDRFSSRRPRNDRRNAPPVRTENRLIVENLSSRVSWQDLKDFMRQAGEVTFADAHRPKLNEGVVEFASYGDLKNAIEKLSGKEINGRKIKLIEGSKRHSRSRSRSRSRTRSSSRSRSRSRSRSRKSYSRSRSRSRSRSRSKSRSVSRSPVPEKSQKRGSSSRSKSPASVDRQRSRSRSRSRSVDSGN
stoichiometry N [1]: ~14 molecules per microphase
threshold concentration for microphase separation (cμ) [2]: 9.5 ± 0.71 µM

B2: SRSF7 (natural protein, human, UniProt Q16629 1-238, looked up)
chain: MSRYGRYGGETKVYVGNLGTGAGKGELERAFSYYGPLRTVWIARNPPGFAFVEFEDPRDAEDAVRGLDGKVICGSRVRVELSTGMPRRSRFDRPPARRPFDPNDRCYECGEKGHYAYDCHRYSRRRRSRSRSRSHSRSRGRRYSRSRSRSRGRRSRSASPRRSRSISLRRSRSASLRRSRSGSIKGSRYFQSPSRSRSRSRSISRPRSSRSKSRSPSPKRSRSPSGSPRRSASPERMD
stoichiometry N [1]: ~8 molecules per microphase
threshold concentration for microphase separation (cμ) [2]: 1 ± 0.14 µM

B3: SRSF3 (natural protein, human, UniProt P84103 1-164, looked up)
chain: MHRDSCPLDCKVYVGNLGNNGNKTELERAFGYYGPLRSVWVARNPPGFAFVEFEDPRDAADAVRELDGRTLCGCRVRVELSNGEKRSRNRGPPPSWGRRPRDDYRRRSPPPRRRSPRRRSFSRSRSRSLSRDRRRERSLSRERNHKPSRSFSRSRSRSRSNERK
stoichiometry N [1]: ~93 molecules per microphase
threshold concentration for microphase separation (cμ) [2]: 2 ± 0.14 µM
